From the Human Domainome abundance scans (Beltran et al. 2025)
± gives the uncertainty stated by the source.

B1: Tyrosine-protein kinase Lck, residues 63 to 120; numbered along this chain, P06239 (parent)
chain: DNLVIALHSYEPSHDGDLGFEKGEQLRILEQSGEWWKAQSLTTGQEGFIPFNFVAKAN

Variants of: B1
Assay: abundance fitness (aPCA) (normalised: wild type 0, dead -1); higher = more abundant; growth selection in yeast, the domain comes from the species named
Conditions: Homo sapiens

D15L and D15F are within error of each other in abundance fitness: -0.106 ± 0.078 for the first, -0.148 ± 0.18 for the second.

D15K and D15R are within error of each other in abundance fitness: 0.111 ± 0.12 for the first, -0.053 ± 0.069 for the second.

D15C and D15T are within error of each other in abundance fitness: -0.196 ± 0.12 for the first, -0.124 ± 0.15 for the second.

D15W and D15V are within error of each other in abundance fitness: -0.461 ± 0.11 for the first, -0.273 ± 0.098 for the second.

D15H and D15P are within error of each other in abundance fitness: -0.071 ± 0.13 for the first, -0.075 ± 0.11 for the second.

D15Q and D15A are within error of each other in abundance fitness: -0.02 ± 0.14 for the first, -0.046 ± 0.11 for the second.

D15M and D15Y are within error of each other in abundance fitness: -0.225 ± 0.12 for the first, -0.071 ± 0.17 for the second.

D15G and D15I are within error of each other in abundance fitness: -0.196 ± 0.095 for the first, -0.225 ± 0.15 for the second.

Y10P and Y10C are within error of each other in abundance fitness: -0.673 ± 0.14 for the first, -0.415 ± 0.12 for the second.

Y10N and Y10I are within error of each other in abundance fitness: -0.587 ± 0.19 for the first, -0.619 ± 0.24 for the second.

Y10R and Y10K are within error of each other in abundance fitness: -0.289 ± 0.079 for the first, -0.113 ± 0.17 for the second.

Y10S and Y10G are within error of each other in abundance fitness: -0.662 ± 0.098 for the first, -0.717 ± 0.086 for the second.

First: Y10H
Second: Y10V
The abundance fitness of the first is higher: -0.087 ± 0.16 for the first, -0.485 ± 0.1 for the second.

Compared with Y10A, Y10W is higher in abundance fitness: -0.671 ± 0.12 for the first, -0.019 ± 0.09 for the second.

Y10L and Y10T are within error of each other in abundance fitness: -0.488 ± 0.092 for the first, -0.604 ± 0.12 for the second.

Y10D and Y10F are within error of each other in abundance fitness: -0.511 ± 0.14 for the first, -0.241 ± 0.14 for the second.

Y10M and G19I are within error of each other in abundance fitness: -0.444 ± 0.15 for the first, -0.538 ± 0.22 for the second.

First: G19Y
Second: G19R
The abundance fitness of the first is lower: -0.55 ± 0.2 for the first, -0.142 ± 0.078 for the second.

Going from G19P to G19V, the abundance fitness falls from -0.16 ± 0.14 to -0.47 ± 0.085.

G19C and G19K are within error of each other in abundance fitness: -0.16 ± 0.11 for the first, -0.108 ± 0.14 for the second.

G19T and G19F are within error of each other in abundance fitness: -0.375 ± 0.13 for the first, -0.567 ± 0.2 for the second.

Going from G19E to G19L, the abundance fitness falls from -0.393 ± 0.11 to -0.604 ± 0.1.

G19M and G19N are within error of each other in abundance fitness: -0.31 ± 0.12 for the first, -0.397 ± 0.17 for the second.

First: G19D
Second: G19A
The abundance fitness of the first is lower: -0.648 ± 0.14 for the first, -0.039 ± 0.085 for the second.

G19H and G19Q are within error of each other in abundance fitness: -0.299 ± 0.13 for the first, -0.256 ± 0.14 for the second.

Going from G19W to D17W, the abundance fitness rises from -0.823 ± 0.16 to -0.083 ± 0.084.

D17M and D17C are the same in abundance fitness: -0.022 ± 0.12 for the first, -0.022 ± 0.12 for the second.

Going from D17L to D17P, the abundance fitness falls from -0.116 ± 0.082 to -0.762 ± 0.15.

D17E and D17K are within error of each other in abundance fitness: 0.063 ± 0.091 for the first, 0.051 ± 0.14 for the second.

D17V and D17G are within error of each other in abundance fitness: -0.111 ± 0.089 for the first, -0.042 ± 0.067 for the second.

D17N and D17S are within error of each other in abundance fitness: -0.177 ± 0.13 for the first, -0.045 ± 0.11 for the second.

D17A and D17R are within error of each other in abundance fitness: -0.006 ± 0.093 for the first, -0.009 ± 0.066 for the second.

D17T and D17F are within error of each other in abundance fitness: -0.255 ± 0.14 for the first, -0.229 ± 0.3 for the second.

Compared with D17H, H8I is lower in abundance fitness: 0.011 ± 0.16 for the first, -0.262 ± 0.11 for the second.

H8R and H8N are within error of each other in abundance fitness: 0.034 ± 0.074 for the first, -0.001 ± 0.14 for the second.

First: H8S
Second: H8P
The abundance fitness of the first is higher: -0.078 ± 0.091 for the first, -0.79 ± 0.18 for the second.

H8V and H8C are within error of each other in abundance fitness: -0.227 ± 0.085 for the first, -0.131 ± 0.11 for the second.

Going from H8L to H8T, the abundance fitness rises from -0.285 ± 0.083 to -0.012 ± 0.11.

H8D and H8Q are within error of each other in abundance fitness: 0.003 ± 0.13 for the first, -0.086 ± 0.13 for the second.

Going from H8G to H8K, the abundance fitness rises from -0.295 ± 0.08 to 0.285 ± 0.17.

H8A and H8E are within error of each other in abundance fitness: -0.067 ± 0.12 for the first, -0.096 ± 0.1 for the second.

G23Y and G23H are within error of each other in abundance fitness: -0.655 ± 0.29 for the first, -0.397 ± 0.2 for the second.

G23I and G23P are within error of each other in abundance fitness: -0.79 ± 0.22 for the first, -1.01 ± 0.29 for the second.

G23C and G23T are within error of each other in abundance fitness: -0.829 ± 0.26 for the first, -0.917 ± 0.23 for the second.

G23E and G23S are within error of each other in abundance fitness: -0.823 ± 0.17 for the first, -0.635 ± 0.094 for the second.

G23W and G23K are within error of each other in abundance fitness: -0.648 ± 0.13 for the first, -0.792 ± 0.2 for the second.

Going from G23D to G23N, the abundance fitness rises from -0.477 ± 0.1 to -0.066 ± 0.15.

G23F and G23L are within error of each other in abundance fitness: -0.573 ± 0.18 for the first, -0.832 ± 0.12 for the second.

G23Q and G23V are within error of each other in abundance fitness: -0.903 ± 0.2 for the first, -1.04 ± 0.12 for the second.

G23M and L7Y are within error of each other in abundance fitness: -0.792 ± 0.16 for the first, -0.54 ± 0.22 for the second.

First: I28A
Second: E21D
The abundance fitness of the first is lower: -0.554 ± 0.11 for the first, -0.205 ± 0.19 for the second.

E21R and E21L are within error of each other in abundance fitness: -0.052 ± 0.08 for the first, -0.11 ± 0.1 for the second.

Compared with E21G, E21T is higher in abundance fitness: -0.349 ± 0.075 for the first, -0.129 ± 0.13 for the second.

Compared with E21Y, E21P is lower in abundance fitness: -0.415 ± 0.23 for the first, -0.914 ± 0.18 for the second.

E21M and E21Q are within error of each other in abundance fitness: -0.134 ± 0.12 for the first, 0.007 ± 0.13 for the second.

Going from E21W to E21S, the abundance fitness rises from -0.481 ± 0.11 to -0.042 ± 0.13.

Going from E21F to E21A, the abundance fitness rises from -0.515 ± 0.21 to -0.062 ± 0.086.

E21N and E21H are within error of each other in abundance fitness: -0.248 ± 0.2 for the first, -0.001 ± 0.3 for the second.

Going from E21V to P12H, the abundance fitness falls from 0.022 ± 0.081 to -0.846 ± 0.3.

Going from P12F to P12S, the abundance fitness rises from -1.08 ± 0.21 to -0.366 ± 0.085.

P12V and P12R are within error of each other in abundance fitness: -0.717 ± 0.11 for the first, -0.705 ± 0.082 for the second.

P12L and P12Q are within error of each other in abundance fitness: -0.913 ± 0.12 for the first, -1 ± 0.23 for the second.

P12T and P12K are within error of each other in abundance fitness: -0.529 ± 0.1 for the first, -0.471 ± 0.12 for the second.

P12C and P12G are within error of each other in abundance fitness: -0.387 ± 0.12 for the first, -0.497 ± 0.09 for the second.

P12N and P12E are within error of each other in abundance fitness: -0.557 ± 0.22 for the first, -0.755 ± 0.1 for the second.

P12D and P12I are within error of each other in abundance fitness: -0.439 ± 0.27 for the first, -0.506 ± 0.16 for the second.

P12Y and L26S are within error of each other in abundance fitness: -0.525 ± 0.16 for the first, -0.84 ± 0.16 for the second.

Compared with L26G, L26C is lower in abundance fitness: -0.704 ± 0.091 for the first, -1.28 ± 0.31 for the second.

L26I and L26E are within error of each other in abundance fitness: -0.648 ± 0.3 for the first, -0.596 ± 0.19 for the second.

L26Q and L26F are within error of each other in abundance fitness: -0.572 ± 0.22 for the first, -0.28 ± 0.18 for the second.

L26V and L26A are within error of each other in abundance fitness: -0.781 ± 0.12 for the first, -0.987 ± 0.2 for the second.

L26R and L26K are within error of each other in abundance fitness: -0.726 ± 0.1 for the first, -0.919 ± 0.3 for the second.

Compared with L26M, L26Y is lower in abundance fitness: -0.126 ± 0.14 for the first, -0.929 ± 0.26 for the second.

L26W and L26N are within error of each other in abundance fitness: -0.864 ± 0.15 for the first, -0.787 ± 0.22 for the second.

L26P and L26H are within error of each other in abundance fitness: -0.909 ± 0.24 for the first, -0.728 ± 0.24 for the second.

First: R27F
Second: R27V
The abundance fitness of the first is lower: -0.448 ± 0.13 for the first, -0.062 ± 0.089 for the second.

R27W and R27T are within error of each other in abundance fitness: -0.44 ± 0.15 for the first, -0.24 ± 0.12 for the second.

Going from R27G to R27D, the abundance fitness rises from -0.881 ± 0.12 to -0.421 ± 0.13.

Going from R27H to R27N, the abundance fitness falls from -0.049 ± 0.13 to -0.471 ± 0.14.

Going from R27L to R27M, the abundance fitness falls from -0.056 ± 0.088 to -0.309 ± 0.14.

Going from R27S to R27K, the abundance fitness rises from -0.465 ± 0.091 to -0.154 ± 0.14.

First: R27P
Second: R27C
The abundance fitness of the first is lower: -0.914 ± 0.29 for the first, -0.208 ± 0.13 for the second.

R27E and R27Y are within error of each other in abundance fitness: -0.022 ± 0.14 for the first, -0.193 ± 0.3 for the second.

R27I showed an abundance fitness of -0.162 ± 0.14.
